For data set [1], the target named is T1, PLE2 Int (large serine recombinase) (Vibrio cholerae PLE2 (satellite), UniProt M1T311 1-630).
T1 sequence: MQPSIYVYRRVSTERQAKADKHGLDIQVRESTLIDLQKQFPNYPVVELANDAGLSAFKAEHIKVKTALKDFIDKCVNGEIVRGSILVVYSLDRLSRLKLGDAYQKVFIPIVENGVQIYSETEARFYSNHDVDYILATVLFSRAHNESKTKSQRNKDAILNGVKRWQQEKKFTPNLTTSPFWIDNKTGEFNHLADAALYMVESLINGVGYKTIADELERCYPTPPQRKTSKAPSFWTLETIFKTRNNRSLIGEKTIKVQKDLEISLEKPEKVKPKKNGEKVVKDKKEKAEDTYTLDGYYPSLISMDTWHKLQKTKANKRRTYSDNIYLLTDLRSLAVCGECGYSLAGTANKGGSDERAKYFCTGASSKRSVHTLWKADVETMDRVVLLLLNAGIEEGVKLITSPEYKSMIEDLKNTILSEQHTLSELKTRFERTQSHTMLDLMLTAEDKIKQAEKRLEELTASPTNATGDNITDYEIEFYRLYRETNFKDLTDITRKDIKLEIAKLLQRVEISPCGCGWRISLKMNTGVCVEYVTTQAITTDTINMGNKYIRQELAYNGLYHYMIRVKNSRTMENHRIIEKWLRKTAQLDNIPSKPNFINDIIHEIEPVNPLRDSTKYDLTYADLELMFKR
In words: EMSA.

Data set [2] has as its target T2, PLE2 IntS12A (Vibrio cholerae PLE2 (satellite), UniProt M1T311 1-630, S12A).
T2 sequence: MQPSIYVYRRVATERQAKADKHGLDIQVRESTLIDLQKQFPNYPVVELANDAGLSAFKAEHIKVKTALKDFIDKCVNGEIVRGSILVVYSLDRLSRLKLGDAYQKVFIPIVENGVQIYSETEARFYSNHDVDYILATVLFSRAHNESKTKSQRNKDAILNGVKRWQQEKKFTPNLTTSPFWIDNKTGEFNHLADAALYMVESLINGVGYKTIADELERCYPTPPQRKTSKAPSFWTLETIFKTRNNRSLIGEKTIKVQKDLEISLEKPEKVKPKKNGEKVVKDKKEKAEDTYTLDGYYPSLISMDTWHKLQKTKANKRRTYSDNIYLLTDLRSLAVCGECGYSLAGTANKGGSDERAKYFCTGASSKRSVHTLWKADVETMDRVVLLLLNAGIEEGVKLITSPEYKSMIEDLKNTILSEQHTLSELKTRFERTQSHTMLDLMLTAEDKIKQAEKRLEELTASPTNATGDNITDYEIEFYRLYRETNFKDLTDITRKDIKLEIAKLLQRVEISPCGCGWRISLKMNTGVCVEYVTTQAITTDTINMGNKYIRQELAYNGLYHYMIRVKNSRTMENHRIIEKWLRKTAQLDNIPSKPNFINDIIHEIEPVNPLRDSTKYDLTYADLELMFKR
In words: EMSA. In general terms: In EMSA bound probe runs differently from free probe, usually more slowly.

B1: PLE2 attP EMSA probe (MN262/MN263) (dsDNA)
DNA 1: GATAGGTCATTTTATACTTCTGACAAAGTTACATATGACTTGCATTAGTG
DNA 2: CACTAATGCAAGTCATATGTAACTTTGTCAGAAGTATAAAATGACCTATC
As to B1, the binding result in data set [1] and in data set [2] was “binds” in each case.
